Laboratory results from PMC3798688, “A Structural Basis for BRD2/4-Mediated Host Chromatin Interaction and Oligomer Assembly of Kaposi Sarcoma-Associated Herpesvirus and Murine Gammaherpesvirus LANA Proteins” (PLoS Pathogens, 2013).

B1: mLANA(124–260) (domain or fragment)
chain: GSKRYSRYQKPHNPSDPLPKKYQGMRRHLQVTAPRLFDPEGHPPTHFKSAVMFSSTHPYTLNKLHKCIQSKHVLSTPVSCLPLVPGTTQQCVTYYLLSFVEDKKQAKKLKRVVLAYCEKYHSSVEGTIVKAKPYFPLPE
notes: source: E. coli BL21(DE3), purified (Ni-NTA with guanidine gradient, thrombin cleavage)
B2: 15N-BRD2 ET(632–713), with N-terminal GSGS (domain or fragment)
chain: GSGSDSEEEEESRPMSYDEKRQLSLDINKLPGEKLGRVVHIIQAREPSLRDSNPEEIEIDFETLKPSTLRELERYVLSCLRKKPRK
notes: also called 15N-BRD2(632–713); source: E. coli BL21(DE3), purified (Ni-NTA with guanidine gradient, thrombin cleavage)
B3: kLANA(996–1153) (domain or fragment)
chain: GSGVRMRRVPVTHPKKPHPRYQQPPVPYRQIDDCPAKARPQHIFYRRFLGKDGRRDPKCQWKFAVIFWGNDPYGLKKLSQAFQFGGVKAGPVSCLPHPGPDQSPITYCVYVYCQNKDTSKKVQMARLAWEASHPLAGNLQSSIVKFKKPLPLTQPGENQG
notes: as for B1
B4: kLANA(1013–1149) (domain or fragment)
chain: GSRYQQPPVPYRQIDDCPAKARPQHIFYRRFLGKDGRRDPKCQWKFAVIFWGNDPYGLKKLSQAFQFGGVKAGPVSCLPHPGPDQSPITYCVYVYCQNKDTSKKVQMARLAWEASHPLAGNLQSSIVKFKKPLPLTQPG
notes: as for B1

How the values were obtained:
crystal structure = biological target: the molecule itself; assay: crystal structure
kLANA(996–1153) = biological target: B3; assay: NMR titration; settings: both partners purified
[1] = biological target: the molecule itself; assay: asymmetric field flow fractionation with multi-angle static light scattering; 40 µg protein per run; 10 mM bis-tris-Cl pH 6.5, 50 mM NaCl, 0.01% NaN3

Binder	stoichiometry N (crystal structure)	binding result (kLANA(996–1153))	stoichiometry N [1]
B1	2	–	–
B2	–	binds	–
B3	8	–	–
B4	10	–	2
